For assay [1], the target named is T1, Bovine submaxillary mucin (bovine).
T1 construct: Glycoprotein used as the TAG-72-positive antigen in dot blots and SPR; also called BSM; TAG-72 positive mucin
Briefly: SPR.

Assay [2] addresses T1, Bovine submaxillary mucin. As to the kind of experiment: SPR on immobilised BSM.
Assay [3] concerns the target T1, Bovine submaxillary mucin. Briefly: SPR, BSM immobilised on CM5 chip. As to the method:
To further confirm the binding data, surface plasmon resonance on 3E8.IgG, CC49.scFv, and 3E8.scFv (FIG. 7c) was determined. […] Next the affinity of the scFv of CC49 was measured. CC49.scFv binds in the mid-nanomolar range with a dissociation constant of 30±8 nM. Finally, SPR was conducted on 3E8.scFv and found it to bind 2-fold better than CC49.scFv and only 4-fold weaker than the bivalent IgG. At 16±4 nM, 3E8.scFv binds better than clinically tested CC49.IgG and scFv variants of CC49, and has more desirable biophysical properties than full-length antibodies.
The binding parameters were evaluated using surface plasmon resonance (SPR). BSM was immobilized on a CM5 dextran sensor chip using the GE Pharmacia amine coupling kit (BR-1000-50). Scouting conditions were 200 μg mL⁻¹ BSM in 100 mM sodium acetate, pH 4 for channel 2, and 10 μg mL⁻¹ BSA in 100 mM sodium acetate, pH 4 for channel 1. The immobilization protocol continued until 700 RU were obtained. Binding was measured as 2-1. Antibody and fragments were dialyzed into 10 mM HEPES, 150 mM NaCl, 3.4 μM EDTA, 0.005% surfactant P20 (GE Healthcare) and were assayed from 0-400 nM. Samples were bound for 120 seconds at 10 μL min⁻¹ and dissociation was measured for 180 seconds. The CM5 chip was regenerated between trials with 6 M guanidine and 200 mM acetic acid with no loss in activity. The average binding parameters were evaluated using the BIAevaluation software.

Assay [4] has as its target T2, bovine serum albumin (bovine, UniProt P02769 25-607).
T2 construct: also called BSA
Briefly: fluorescence dot blot on nitrocellulose. The procedure: Bovine submaxillary mucin is positive for the TAG-72 epitope, sialyl-Tn. To qualitatively assay binding, BSM was spotted on a nitrocellulose membrane and then blocked with bovine serum albumin (BSA). The antibodies and fragments were labeled nonspecifically at lysines with the NHS-ester of fluorescein, and then were added to the dot blots. After gentle washing the samples were imaged using a Typhoon phosphorimager.
Qualitative binding to sialyl-Tn was assayed by dot-blotting. First, 2 μL of 5 mg mL⁻¹ bovine submaxillary mucin (M3895-Sigma) was spotted on a nitrocellulose membrane. The membrane was allowed to dry overnight before blocking with 5 mg mL⁻¹ BSA. After overnight incubation, excess BSA was removed by washing before addition of fluorescein-labeled scFvs. The scFvs were incubated for 3 hours at room temperature before washing. Fluorescence was observed using a Typhoon phosphorimager with 488 nm excitation.

The target of assay [5] is T1, Bovine submaxillary mucin. Briefly: estimate from the competition dot blot on BSM. As to the method:
(§1) A similar dot blot experiment was performed using constant concentrations of BSM and fluorescein-labeled 3E8 IgG. The assays were performed with increasing concentrations of unlabeled 3E8.scFv. […] Two negative controls were performed in parallel. […] By 4 μM scFv about half of the IgG is displaced and by […] the dot blot resembles the negative control. This analysis estimates that 3E8.scFv binds approximately 16-fold weaker than 3E8.IgG and both bind the same epitope. The slight loss in affinity is expected since the native IgG is bivalent versus the monovalent scFv.
(§2) The epitope binding of the 3E8.scFv was assayed for its ability to inhibit 3E8.IgG binding. Here, 0.25 μM labeled 3E8.IgG competed with increasing concentrations of nonlabeled 3E8.scFv (0 to 8 μM). The loss of fluorescence was observed using the Typhoon phosphorimager with 488 nm excitation.

The target in assay [6] is T1, Bovine submaxillary mucin. As to the kind of experiment: estimate from the competition dot blot against labeled 3E8.IgG.
The target of assay [7] is T1, Bovine submaxillary mucin. As to the kind of experiment: competition dot blot; unlabeled scFv against 0.25 µM fluorescein-labeled 3E8 IgG on BSM. The procedure:
as §1, §2

For assay [8], the target named is T2, bovine serum albumin. Briefly: negative control of the competition dot blot, fluorescein-labeled IgG, no BSM. As to the method:
as §1, §2

T2 sequence (P02769 25-607 limits assumed): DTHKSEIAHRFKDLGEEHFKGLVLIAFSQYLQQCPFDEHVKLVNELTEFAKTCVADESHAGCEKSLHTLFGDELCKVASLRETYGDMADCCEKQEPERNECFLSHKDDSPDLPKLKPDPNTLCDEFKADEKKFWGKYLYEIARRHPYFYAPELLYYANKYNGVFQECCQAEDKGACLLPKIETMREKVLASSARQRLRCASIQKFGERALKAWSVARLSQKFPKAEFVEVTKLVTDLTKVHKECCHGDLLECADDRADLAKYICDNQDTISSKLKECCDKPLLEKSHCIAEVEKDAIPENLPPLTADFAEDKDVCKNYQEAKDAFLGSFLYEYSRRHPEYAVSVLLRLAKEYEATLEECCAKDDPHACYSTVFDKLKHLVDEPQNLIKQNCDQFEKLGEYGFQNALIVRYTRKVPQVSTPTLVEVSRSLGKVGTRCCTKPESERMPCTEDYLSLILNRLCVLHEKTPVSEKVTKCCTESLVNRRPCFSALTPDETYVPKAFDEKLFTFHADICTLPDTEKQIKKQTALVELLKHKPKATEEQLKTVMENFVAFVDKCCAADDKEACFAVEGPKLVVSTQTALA

B1: 3E8.scFv (scFv)
scFv: GSSGDIVMTQSPDSLAVSLGERATINCKSSQSVLYSSNNKNYLAWYQQKPGQPPKLLIYWASTRESGVPDRFSGSGSGTDFTLTISSLQAEDVAVYYCQQYYSYPLTFGGGTKVEIKLSADDAKKDAAKKDDAKKDDAKKDLQVQLVQSGAEVKKPGASVKVSCKASGYTFTDHAIHWVRQAPGQRLEWMGYFSPGNDDFKYSQKFQGRVTITADKSASTAYMELSSLRSEDTAVYYCARSWIMQYWGQGTLVTVSS
notes: Labelled at lysines with fluorescein for the fluorescence dot blots and with biotin for the HRP dot blot and IHC; also called the scFv of 3E8; 3E8 scFv single chain
As usually defined, the Kd is the constant that tells how readily two partners part at equilibrium. In general, IC50 refers to the concentration needed to halve the response being measured. Read a low IC50 as greater potency in that assay. Turning to B1, the Kd in assay [1] is 16.4 nM; in assay [2], 12 nM; in assay [3] it was 16 nM; in assay [6] it was around 10.4 nM. The “fold tighter binding than CC49.scFv” value in assay [3] is 2 fold. Besides, in assay [3], the “fold weaker binding than 3E8 IgG” value is 4 fold. In addition, the binding result in the assay with bovine serum albumin [4] is given as “no binding”. Further, in assay [5], the “fold weaker binding than 3E8.IgG” value is around 16 fold. In addition, the IC50 in assay [7] is around 4 µM.

B2: 3E8 IgG (antibody, V domains shown)
VH: QVQLVQSGAEVKKPGASVKVSCKASGYTFTDHAIHWVRQAPGQRLEWMGYFSPGNDDFKYSQKFQGRVTITADKSASTAYMELSSLRSEDTAVYYCARSWIMQYWGQGTLVTVSS
VL: not shown
notes: Full-length humanized monoclonal IgG, gift from Enlyton, Ltd; Fluorescein-labelled at lysines in the dot blots; also called the bivalent IgG; full-length 3E8 IgG
In the case of B2, the Kd in assay [3] was 4 nM. Also, in the assay with bovine serum albumin [8], the binding result was “no binding (tested: 0.25 µM)”.

The record behind these values is patent publication US20170218081A1 (OHIO STATE INNOVATION FOUNDATION, published 2017).
